Data as given in patent US20120258107A1.
pKd: −log10 of the molar value.

Legend:
[1] = target: purified recombinant CD163 immobilized on a Biacore chip (human) (UniProt Q86VB7); test: SPR, immobilized CD163, 10 mM EDTA
[2] = target: human CD163 on cells (human) (UniProt Q86VB7); test: quantitative flow cytometry, whole blood, EDTA
[3] = target: human CD163 on cells (human) (UniProt Q86VB7); test: quantitative flow cytometry, whole blood, citrate
[4] = target: human CD163 on cells (human) (UniProt Q86VB7); test: quantitative flow cytometry, whole blood, heparin
[5] = target: human CD163 on cells (human) (UniProt Q86VB7); test: flow cytometry, whole blood, EDTA as anticoagulant
[6] = target: human CD163 on cells (human) (UniProt Q86VB7); test: flow cytometry, whole blood, citrate as anticoagulant
[7] = target: human CD163 on cells (human) (UniProt Q86VB7); test: flow cytometry, whole blood, heparin as anticoagulant
[8] = target: human CD163 on cells (human) (UniProt Q86VB7); test: flow cytometry, R-PE mAb, freshly drawn EDTA whole blood
[9] = target: human CD163 on cells (human) (UniProt Q86VB7); test: flow cytometry, PE mAb, peripheral blood dendritic cells
[10] = target: human CD163 on cells (human) (UniProt Q86VB7); test: flow cytometry, PBMC after density gradient centrifugation
[11] = target: human CD163 on cells (human) (UniProt Q86VB7); test: flow cytometry, PE mAb, CD14-ILT3+ dendritic cells in whole blood
[12] = target: human CD163 on cells (human) (UniProt Q86VB7); test: quantitative flow cytometry, Quantibrite PE beads, EDTA whole blood
[13] = target: human CD163 on cells (human) (UniProt Q86VB7); test: flow cytometry, CD163low subset of peripheral blood dendritic cells
[14] = target: human CD163 on cells (human) (UniProt Q86VB7); test: flow cytometry, CD163high subset of peripheral blood dendritic cells
[15] = target: human CD163 on cells (human) (UniProt Q86VB7); test: flow cytometry, CD14+ILT3+HLA-DR+ monocytes stained positive for CD163
[16] = target: human CD163 on cells (human) (UniProt Q86VB7); test: quantitative flow cytometry, PBMC after density gradient centrifugation
[17] = target: human CD163 on cells (human) (UniProt Q86VB7); test: 125I-labelled mAb on stable CD163 transfected Flp-In CHO cells (1.23% on non-transfected cells)
[18] = target: human CD163 on cells (human) (UniProt Q86VB7); test: 125I-labelled mAb on stable CD163 transfected Flp-In CHO cells (0.97% on non-transfected cells)
[19] = target: purified recombinant CD163 immobilized on a Biacore chip (human) (UniProt Q86VB7); test: SPR, immobilized CD163, 2 mM free Ca2+
[20] = target: human CD163 on cells (human) (UniProt Q86VB7); test: 125I-labelled mAb on stable CD163 transfected Flp-In CHO cells (1.47% on non-transfected cells)
rat CD163 on cells (rat) [21] = test: flow cytometry, rat peritoneal macrophages, ED2-FITC
rat CD163 on cells (rat) [22] = test: flow cytometry of rat peritoneal macrophages, anti-rat CD163-FITC (ED2) against anti-rat CD172a-PE (ED9)
rat CD163 on cells (rat) [23] = test: cell-based or functional assay
rat CD163 on cells (rat) [24] = test: flow cytometry of rat peritoneal macrophages, negative control staining with IgG-FITC
[25] = target: human CD163 on cells (human) (UniProt Q86VB7); test: quantitative flow cytometry, background staining, EDTA whole blood
[26] = target: human CD163 on cells (human) (UniProt Q86VB7); test: flow cytometry on peripheral blood dendritic cells, negative staining control

human CD163 on cells (human), sequence (Q86VB7 42-1156): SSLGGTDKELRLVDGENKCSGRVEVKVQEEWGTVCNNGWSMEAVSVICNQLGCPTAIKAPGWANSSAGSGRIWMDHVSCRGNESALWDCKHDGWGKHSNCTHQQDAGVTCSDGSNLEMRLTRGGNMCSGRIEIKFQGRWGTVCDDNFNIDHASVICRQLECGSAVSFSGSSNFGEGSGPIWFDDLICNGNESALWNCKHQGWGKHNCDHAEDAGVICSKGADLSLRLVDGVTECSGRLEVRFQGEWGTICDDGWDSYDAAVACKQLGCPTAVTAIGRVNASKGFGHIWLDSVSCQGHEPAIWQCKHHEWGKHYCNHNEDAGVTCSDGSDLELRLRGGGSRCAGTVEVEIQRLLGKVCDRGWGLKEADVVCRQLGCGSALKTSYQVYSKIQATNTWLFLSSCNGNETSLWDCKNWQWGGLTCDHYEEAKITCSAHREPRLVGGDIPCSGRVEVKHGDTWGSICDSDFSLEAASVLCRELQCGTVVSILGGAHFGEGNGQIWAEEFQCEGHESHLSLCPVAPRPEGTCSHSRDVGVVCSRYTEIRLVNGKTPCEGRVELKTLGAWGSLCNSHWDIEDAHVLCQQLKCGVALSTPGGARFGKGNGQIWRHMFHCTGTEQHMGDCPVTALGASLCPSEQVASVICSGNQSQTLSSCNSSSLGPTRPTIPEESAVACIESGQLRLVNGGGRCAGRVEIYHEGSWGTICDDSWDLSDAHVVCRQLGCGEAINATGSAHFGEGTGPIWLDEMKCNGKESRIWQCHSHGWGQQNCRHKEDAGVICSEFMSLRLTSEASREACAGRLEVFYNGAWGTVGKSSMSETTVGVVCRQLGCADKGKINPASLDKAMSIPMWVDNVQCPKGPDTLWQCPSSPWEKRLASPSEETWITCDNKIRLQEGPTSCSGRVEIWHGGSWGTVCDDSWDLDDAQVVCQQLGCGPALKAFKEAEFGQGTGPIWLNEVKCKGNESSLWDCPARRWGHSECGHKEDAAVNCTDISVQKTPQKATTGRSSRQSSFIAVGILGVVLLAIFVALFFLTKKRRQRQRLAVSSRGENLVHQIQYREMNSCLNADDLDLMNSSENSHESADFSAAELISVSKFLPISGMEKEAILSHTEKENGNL
purified recombinant CD163 immobilized on a Biacore chip (human), sequence (Q86VB7 42-1050 limits assumed): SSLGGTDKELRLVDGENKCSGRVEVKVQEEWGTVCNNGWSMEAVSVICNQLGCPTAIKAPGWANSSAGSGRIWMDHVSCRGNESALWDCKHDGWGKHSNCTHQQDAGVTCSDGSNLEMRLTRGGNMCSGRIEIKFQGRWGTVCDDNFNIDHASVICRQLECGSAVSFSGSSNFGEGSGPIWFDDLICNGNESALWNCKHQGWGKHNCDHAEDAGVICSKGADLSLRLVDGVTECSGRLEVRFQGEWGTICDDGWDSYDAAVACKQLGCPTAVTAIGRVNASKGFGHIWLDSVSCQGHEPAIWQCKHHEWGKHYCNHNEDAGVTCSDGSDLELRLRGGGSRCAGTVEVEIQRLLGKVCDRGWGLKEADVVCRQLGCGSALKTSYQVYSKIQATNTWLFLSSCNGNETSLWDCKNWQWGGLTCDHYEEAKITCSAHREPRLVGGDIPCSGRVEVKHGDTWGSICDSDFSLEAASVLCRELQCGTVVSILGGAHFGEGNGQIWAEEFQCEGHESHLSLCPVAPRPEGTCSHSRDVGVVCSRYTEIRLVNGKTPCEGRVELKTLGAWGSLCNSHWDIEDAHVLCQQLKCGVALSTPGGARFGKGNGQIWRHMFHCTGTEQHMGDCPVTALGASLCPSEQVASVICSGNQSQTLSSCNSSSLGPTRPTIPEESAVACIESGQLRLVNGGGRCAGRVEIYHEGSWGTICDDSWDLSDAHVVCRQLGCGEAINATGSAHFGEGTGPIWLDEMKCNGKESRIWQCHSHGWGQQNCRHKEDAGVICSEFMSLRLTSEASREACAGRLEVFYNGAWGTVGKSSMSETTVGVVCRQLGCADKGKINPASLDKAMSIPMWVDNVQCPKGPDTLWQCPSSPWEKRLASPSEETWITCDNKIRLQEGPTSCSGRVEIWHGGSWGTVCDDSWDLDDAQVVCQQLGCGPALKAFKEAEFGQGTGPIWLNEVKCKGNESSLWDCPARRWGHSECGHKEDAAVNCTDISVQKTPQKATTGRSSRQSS

Substance	density of CD163 receptors per monocyte (PE antibodies bound per cell) [2]	density of CD163 receptors per monocyte (PE antibodies bound per cell) [3]	density of CD163 receptors per monocyte (PE antibodies bound per cell) [4]	fraction of CD14+ monocytes stained positive for CD163 [5]	fraction of CD14+ monocytes stained positive for CD163 [6]	fraction of CD14+ monocytes stained positive for CD163 [7]	fraction of CD14+ monocytes stained positive for CD163 [8]	fraction of CD14+ monocytes stained positive for CD163 [10]	density of CD163 receptors per monocyte (PE antibodies bound per cell) [12]	density of CD163 receptors per monocyte (PE antibodies bound per cell) [16]	other results
Anti-CD163 (GHI/61) (antibody)	1030 per monocyte	1150 per monocyte	58.3 per monocyte	63%	64.4%	0.82%	63%	1.26%	1030 per monocyte	108 per monocyte	pKd [1]: 7.54; MFI [9]: 22.3; fraction of peripheral blood dendritic cells recognized [11]: 10.5%; MFI [13]: 4.2 MFI; MFI [14]: 34.6 MFI; percent of cells stained positive [15]: 88%
Anti-CD163 (GHI/61) (antibody, non-transfected cells)	–	–	–	–	–	–	–	–	–	–	percentage of cell-associated radioactivity [17]: 1.23%
Anti-CD163 (R-20) (antibody)	1760 per monocyte	1990 per monocyte	3020 per monocyte	75.9%	74.7%	63%	75.9%	54.4%	1650 per monocyte	837 per monocyte	percentage of cell-associated radioactivity [18]: 19%
Anti-CD163 (RM3/1) (antibody)	86 per monocyte	207 per monocyte	210 per monocyte	0.33%	12.5%	3.33%	0.33%	2.5%	101 per monocyte	132 per monocyte	pKd [19]: 9.22; percentage of cell-associated radioactivity [20]: 7.77%
Anti-rat CD163 ED2 (antibody)	–	–	–	–	–	–	–	–	–	–	fraction of peritoneal macrophages CD163 positive (rat CD163 on cells (rat) [21]): 42%; % of cells in the lower right quadrant (CD172a PE negative, CD163 FITC positive) (rat CD163 on cells (rat) [22]): 0.01%; % of cells in the upper right quadrant (CD172a PE positive, CD163 FITC positive) (rat CD163 on cells (rat) [22]): 42.9%
ED2-MVCP-dexamethasone (antibody)	–	–	–	–	–	–	–	–	–	–	suppressive effect on LPS mediated TNFα in vitro, rat spleen cells, against free dexamethasone (rat CD163 on cells (rat) [23]): 3 fold
ED2-NHS-dexamethasone (antibody)	–	–	–	–	–	–	–	–	–	–	level of TNFα suppression after 15 minutes of incubation, LPS stimulated rat spleen cells, against free dexamethasone (rat CD163 on cells (rat) [23]): 2 fold; suppressive effect on LPS mediated TNFα in vitro, rat spleen cells, against free dexamethasone (rat CD163 on cells (rat) [23]): 2 fold
IgG-FITC (antibody)	–	–	–	–	–	–	–	–	–	–	% of cells in the lower right quadrant (IgG FITC positive) (rat CD163 on cells (rat) [24]): 0.41%; % of cells in the upper right quadrant (IgG FITC positive, FL2 positive) (rat CD163 on cells (rat) [24]): 0.06%
R-PE-conjugated Mouse IgG1, k isotype control (MCG1) (antibody)	–	–	–	–	–	–	–	–	–	–	density of CD163 receptors per monocyte (PE antibodies bound per cell) [25]: 94 per monocyte; MFI [26]: 1.23 MFI
